From patent publication US12679878B2, “CRF2 receptor agonists and their use in therapy” (SANOFI, priority 2020, dated 2026)
Starred links: 1 amine or outer side, 2 acyl side, 3 side chain; linkers in the order of their positions; H or OH if unused. Non-standard residues stand in square brackets, D forms with d. Groups on a side chain read outwards from the residue. No end group written: not given here. *: point of attachment. C18 diacid = O=C(O)CCCCCCCCCCCCCCCCC(=O)*; γGlu = O=C(O)[C@H](CCC(=O)[*:2])N[*:1]; Palmitoyl = CCCCCCCCCCCCCCCC(=O)*; AEEA = NCCOCCOCC(=O)O; Aib = CC(C)(N)C(=O)O

B1: SEQ ID NO: 121 (peptide)
peptide: IVLSLDVPIKLK([AEEA-AEEA-γGlu-C18 diacid])QILLKQERQKKQREKAEKNKQILAQV-NH2
modifications: N-terminus assumed
SMILES: CC[C@H](C)[C@H](N)C(=O)N[C@H](C(=O)N[C@@H](CC(C)C)C(=O)N[C@@H](CO)C(=O)N[C@@H](CC(C)C)C(=O)N[C@@H](CC(=O)O)C(=O)N[C@H](C(=O)N1CCC[C@H]1C(=O)N[C@H](C(=O)N[C@@H](CCCCN)C(=O)N[C@@H](CC(C)C)C(=O)N[C@@H](CCCCNC(=O)COCCOCCNC(=O)COCCOCCNC(=O)CC[C@H](NC(=O)CCCCCCCCCCCCCCCCC(=O)O)C(=O)O)C(=O)N[C@@H](CCC(N)=O)C(=O)N[C@H](C(=O)N[C@@H](CC(C)C)C(=O)N[C@@H](CC(C)C)C(=O)N[C@@H](CCCCN)C(=O)N[C@@H](CCC(N)=O)C(=O)N[C@@H](CCC(=O)O)C(=O)N[C@@H](CCCNC(=N)N)C(=O)N[C@@H](CCC(N)=O)C(=O)N[C@@H](CCCCN)C(=O)N[C@@H](CCCCN)C(=O)N[C@@H](CCC(N)=O)C(=O)N[C@@H](CCCNC(=N)N)C(=O)N[C@@H](CCC(=O)O)C(=O)N[C@@H](CCCCN)C(=O)N[C@@H](C)C(=O)N[C@@H](CCC(=O)O)C(=O)N[C@@H](CCCCN)C(=O)N[C@@H](CC(N)=O)C(=O)N[C@@H](CCCCN)C(=O)N[C@@H](CCC(N)=O)C(=O)N[C@H](C(=O)N[C@@H](CC(C)C)C(=O)N[C@@H](C)C(=O)N[C@@H](CCC(N)=O)C(=O)N[C@H](C(N)=O)C(C)C)[C@@H](C)CC)[C@@H](C)CC)[C@@H](C)CC)C(C)C)C(C)C
B2: SEQ ID NO: 119 (peptide)
peptide: IVLSLDVPIKLK([AEEA-AEEA-γGlu-C18 diacid])QILLKQERQKK[Aib]RQKAEKNKQILAQV-NH2
modifications: N-terminus assumed
SMILES: CC[C@H](C)[C@H](N)C(=O)N[C@H](C(=O)N[C@@H](CC(C)C)C(=O)N[C@@H](CO)C(=O)N[C@@H](CC(C)C)C(=O)N[C@@H](CC(=O)O)C(=O)N[C@H](C(=O)N1CCC[C@H]1C(=O)N[C@H](C(=O)N[C@@H](CCCCN)C(=O)N[C@@H](CC(C)C)C(=O)N[C@@H](CCCCNC(=O)COCCOCCNC(=O)COCCOCCNC(=O)CC[C@H](NC(=O)CCCCCCCCCCCCCCCCC(=O)O)C(=O)O)C(=O)N[C@@H](CCC(N)=O)C(=O)N[C@H](C(=O)N[C@@H](CC(C)C)C(=O)N[C@@H](CC(C)C)C(=O)N[C@@H](CCCCN)C(=O)N[C@@H](CCC(N)=O)C(=O)N[C@@H](CCC(=O)O)C(=O)N[C@@H](CCCNC(=N)N)C(=O)N[C@@H](CCC(N)=O)C(=O)N[C@@H](CCCCN)C(=O)N[C@@H](CCCCN)C(=O)NC(C)(C)C(=O)N[C@@H](CCCNC(=N)N)C(=O)N[C@@H](CCC(N)=O)C(=O)N[C@@H](CCCCN)C(=O)N[C@@H](C)C(=O)N[C@@H](CCC(=O)O)C(=O)N[C@@H](CCCCN)C(=O)N[C@@H](CC(N)=O)C(=O)N[C@@H](CCCCN)C(=O)N[C@@H](CCC(N)=O)C(=O)N[C@H](C(=O)N[C@@H](CC(C)C)C(=O)N[C@@H](C)C(=O)N[C@@H](CCC(N)=O)C(=O)N[C@H](C(N)=O)C(C)C)[C@@H](C)CC)[C@@H](C)CC)[C@@H](C)CC)C(C)C)C(C)C
B3: SEQ ID NO: 118 (peptide)
peptide: IVLSLD[dV]PIKLK([AEEA-AEEA-γGlu-C18 diacid])QILLKQERQK[Aib]QRQKAEKNKQILAQV-NH2
modifications: N-terminus assumed
SMILES: CC[C@H](C)[C@H](N)C(=O)N[C@H](C(=O)N[C@@H](CC(C)C)C(=O)N[C@@H](CO)C(=O)N[C@@H](CC(C)C)C(=O)N[C@@H](CC(=O)O)C(=O)N[C@@H](C(=O)N1CCC[C@H]1C(=O)N[C@H](C(=O)N[C@@H](CCCCN)C(=O)N[C@@H](CC(C)C)C(=O)N[C@@H](CCCCNC(=O)COCCOCCNC(=O)COCCOCCNC(=O)CC[C@H](NC(=O)CCCCCCCCCCCCCCCCC(=O)O)C(=O)O)C(=O)N[C@@H](CCC(N)=O)C(=O)N[C@H](C(=O)N[C@@H](CC(C)C)C(=O)N[C@@H](CC(C)C)C(=O)N[C@@H](CCCCN)C(=O)N[C@@H](CCC(N)=O)C(=O)N[C@@H](CCC(=O)O)C(=O)N[C@@H](CCCNC(=N)N)C(=O)N[C@@H](CCC(N)=O)C(=O)N[C@@H](CCCCN)C(=O)NC(C)(C)C(=O)N[C@@H](CCC(N)=O)C(=O)N[C@@H](CCCNC(=N)N)C(=O)N[C@@H](CCC(N)=O)C(=O)N[C@@H](CCCCN)C(=O)N[C@@H](C)C(=O)N[C@@H](CCC(=O)O)C(=O)N[C@@H](CCCCN)C(=O)N[C@@H](CC(N)=O)C(=O)N[C@@H](CCCCN)C(=O)N[C@@H](CCC(N)=O)C(=O)N[C@H](C(=O)N[C@@H](CC(C)C)C(=O)N[C@@H](C)C(=O)N[C@@H](CCC(N)=O)C(=O)N[C@H](C(N)=O)C(C)C)[C@@H](C)CC)[C@@H](C)CC)[C@@H](C)CC)C(C)C)C(C)C
B4: SEQ ID NO: 120 (peptide)
peptide: IVLSLDVPIKLK([AEEA-AEEA-γGlu-C18 diacid])QILLKQERQKKQREQAEKNKQILEQV-NH2
modifications: N-terminus assumed
SMILES: CC[C@H](C)[C@H](N)C(=O)N[C@H](C(=O)N[C@@H](CC(C)C)C(=O)N[C@@H](CO)C(=O)N[C@@H](CC(C)C)C(=O)N[C@@H](CC(=O)O)C(=O)N[C@H](C(=O)N1CCC[C@H]1C(=O)N[C@H](C(=O)N[C@@H](CCCCN)C(=O)N[C@@H](CC(C)C)C(=O)N[C@@H](CCCCNC(=O)COCCOCCNC(=O)COCCOCCNC(=O)CC[C@H](NC(=O)CCCCCCCCCCCCCCCCC(=O)O)C(=O)O)C(=O)N[C@@H](CCC(N)=O)C(=O)N[C@H](C(=O)N[C@@H](CC(C)C)C(=O)N[C@@H](CC(C)C)C(=O)N[C@@H](CCCCN)C(=O)N[C@@H](CCC(N)=O)C(=O)N[C@@H](CCC(=O)O)C(=O)N[C@@H](CCCNC(=N)N)C(=O)N[C@@H](CCC(N)=O)C(=O)N[C@@H](CCCCN)C(=O)N[C@@H](CCCCN)C(=O)N[C@@H](CCC(N)=O)C(=O)N[C@@H](CCCNC(=N)N)C(=O)N[C@@H](CCC(=O)O)C(=O)N[C@@H](CCC(N)=O)C(=O)N[C@@H](C)C(=O)N[C@@H](CCC(=O)O)C(=O)N[C@@H](CCCCN)C(=O)N[C@@H](CC(N)=O)C(=O)N[C@@H](CCCCN)C(=O)N[C@@H](CCC(N)=O)C(=O)N[C@H](C(=O)N[C@@H](CC(C)C)C(=O)N[C@@H](CCC(=O)O)C(=O)N[C@@H](CCC(N)=O)C(=O)N[C@H](C(N)=O)C(C)C)[C@@H](C)CC)[C@@H](C)CC)[C@@H](C)CC)C(C)C)C(C)C
B5: SEQ ID NO: 122 (peptide)
peptide: IVLSLDVPIKLK([AEEA-AEEA-γGlu-C18 diacid])QILLKQERQKKQRQQAEKNKQILAQV-NH2
modifications: N-terminus assumed
SMILES: CC[C@H](C)[C@H](N)C(=O)N[C@H](C(=O)N[C@@H](CC(C)C)C(=O)N[C@@H](CO)C(=O)N[C@@H](CC(C)C)C(=O)N[C@@H](CC(=O)O)C(=O)N[C@H](C(=O)N1CCC[C@H]1C(=O)N[C@H](C(=O)N[C@@H](CCCCN)C(=O)N[C@@H](CC(C)C)C(=O)N[C@@H](CCCCNC(=O)COCCOCCNC(=O)COCCOCCNC(=O)CC[C@H](NC(=O)CCCCCCCCCCCCCCCCC(=O)O)C(=O)O)C(=O)N[C@@H](CCC(N)=O)C(=O)N[C@H](C(=O)N[C@@H](CC(C)C)C(=O)N[C@@H](CC(C)C)C(=O)N[C@@H](CCCCN)C(=O)N[C@@H](CCC(N)=O)C(=O)N[C@@H](CCC(=O)O)C(=O)N[C@@H](CCCNC(=N)N)C(=O)N[C@@H](CCC(N)=O)C(=O)N[C@@H](CCCCN)C(=O)N[C@@H](CCCCN)C(=O)N[C@@H](CCC(N)=O)C(=O)N[C@@H](CCCNC(=N)N)C(=O)N[C@@H](CCC(N)=O)C(=O)N[C@@H](CCC(N)=O)C(=O)N[C@@H](C)C(=O)N[C@@H](CCC(=O)O)C(=O)N[C@@H](CCCCN)C(=O)N[C@@H](CC(N)=O)C(=O)N[C@@H](CCCCN)C(=O)N[C@@H](CCC(N)=O)C(=O)N[C@H](C(=O)N[C@@H](CC(C)C)C(=O)N[C@@H](C)C(=O)N[C@@H](CCC(N)=O)C(=O)N[C@H](C(N)=O)C(C)C)[C@@H](C)CC)[C@@H](C)CC)[C@@H](C)CC)C(C)C)C(C)C
B6: SEQ ID NO: 11 (peptide)
peptide: FTLSLDVPTKIK([γGlu-Palmitoyl])QKLLKQEKQKKQRQKAKTNAQILAQV-NH2
modifications: N-terminus assumed
SMILES: CCCCCCCCCCCCCCCC(=O)N[C@@H](CCC(=O)NCCCC[C@H](NC(=O)[C@@H](NC(=O)[C@H](CCCCN)NC(=O)[C@@H](NC(=O)[C@@H]1CCCN1C(=O)[C@@H](NC(=O)[C@H](CC(=O)O)NC(=O)[C@H](CC(C)C)NC(=O)[C@H](CO)NC(=O)[C@H](CC(C)C)NC(=O)[C@@H](NC(=O)[C@@H](N)Cc1ccccc1)[C@@H](C)O)C(C)C)[C@@H](C)O)[C@@H](C)CC)C(=O)N[C@@H](CCC(N)=O)C(=O)N[C@@H](CCCCN)C(=O)N[C@@H](CC(C)C)C(=O)N[C@@H](CC(C)C)C(=O)N[C@@H](CCCCN)C(=O)N[C@@H](CCC(N)=O)C(=O)N[C@@H](CCC(=O)O)C(=O)N[C@@H](CCCCN)C(=O)N[C@@H](CCC(N)=O)C(=O)N[C@@H](CCCCN)C(=O)N[C@@H](CCCCN)C(=O)N[C@@H](CCC(N)=O)C(=O)N[C@@H](CCCNC(=N)N)C(=O)N[C@@H](CCC(N)=O)C(=O)N[C@@H](CCCCN)C(=O)N[C@@H](C)C(=O)N[C@@H](CCCCN)C(=O)N[C@H](C(=O)N[C@@H](CC(N)=O)C(=O)N[C@@H](C)C(=O)N[C@@H](CCC(N)=O)C(=O)N[C@H](C(=O)N[C@@H](CC(C)C)C(=O)N[C@@H](C)C(=O)N[C@@H](CCC(N)=O)C(=O)N[C@H](C(N)=O)C(C)C)[C@@H](C)CC)[C@@H](C)O)C(=O)O

Each binder was assayed against human corticotropin-releasing factor 2α (CRF2 α receptor) (human), Q13324 (assay: cell-based or functional assay).
Sequence of human corticotropin-releasing factor 2α (CRF2 α receptor) (human), Q13324 (Q13324 20-411): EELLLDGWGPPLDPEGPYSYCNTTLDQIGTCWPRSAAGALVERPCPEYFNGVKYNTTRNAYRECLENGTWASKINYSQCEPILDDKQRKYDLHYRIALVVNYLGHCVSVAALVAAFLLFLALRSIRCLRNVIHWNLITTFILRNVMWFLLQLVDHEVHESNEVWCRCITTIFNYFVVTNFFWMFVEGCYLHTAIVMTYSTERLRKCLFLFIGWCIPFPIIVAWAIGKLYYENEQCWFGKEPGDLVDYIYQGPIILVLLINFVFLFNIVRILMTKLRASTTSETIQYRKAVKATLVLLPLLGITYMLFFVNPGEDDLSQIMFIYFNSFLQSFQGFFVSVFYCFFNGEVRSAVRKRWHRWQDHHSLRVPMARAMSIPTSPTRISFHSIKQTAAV

Row | EC50 [nM], 0% HSA [nM] | EC50 [nM], 0.1% HSA [nM] | Binder
1 | 0.73 | 41.3 | B1
2 | 0.13 | 4.97 | B2
3 | 0.04 | 2.13 | B3
4 | 1.27 | 61.1 | B4
5 | 0.04 | 1.71 | B5
6 | 0.02 | – | B6
